# Article PMC6900781
# T1: GFP-LacI-dCENP-C (Drosophila melanogaster), Q9VHP9
# T1 chain: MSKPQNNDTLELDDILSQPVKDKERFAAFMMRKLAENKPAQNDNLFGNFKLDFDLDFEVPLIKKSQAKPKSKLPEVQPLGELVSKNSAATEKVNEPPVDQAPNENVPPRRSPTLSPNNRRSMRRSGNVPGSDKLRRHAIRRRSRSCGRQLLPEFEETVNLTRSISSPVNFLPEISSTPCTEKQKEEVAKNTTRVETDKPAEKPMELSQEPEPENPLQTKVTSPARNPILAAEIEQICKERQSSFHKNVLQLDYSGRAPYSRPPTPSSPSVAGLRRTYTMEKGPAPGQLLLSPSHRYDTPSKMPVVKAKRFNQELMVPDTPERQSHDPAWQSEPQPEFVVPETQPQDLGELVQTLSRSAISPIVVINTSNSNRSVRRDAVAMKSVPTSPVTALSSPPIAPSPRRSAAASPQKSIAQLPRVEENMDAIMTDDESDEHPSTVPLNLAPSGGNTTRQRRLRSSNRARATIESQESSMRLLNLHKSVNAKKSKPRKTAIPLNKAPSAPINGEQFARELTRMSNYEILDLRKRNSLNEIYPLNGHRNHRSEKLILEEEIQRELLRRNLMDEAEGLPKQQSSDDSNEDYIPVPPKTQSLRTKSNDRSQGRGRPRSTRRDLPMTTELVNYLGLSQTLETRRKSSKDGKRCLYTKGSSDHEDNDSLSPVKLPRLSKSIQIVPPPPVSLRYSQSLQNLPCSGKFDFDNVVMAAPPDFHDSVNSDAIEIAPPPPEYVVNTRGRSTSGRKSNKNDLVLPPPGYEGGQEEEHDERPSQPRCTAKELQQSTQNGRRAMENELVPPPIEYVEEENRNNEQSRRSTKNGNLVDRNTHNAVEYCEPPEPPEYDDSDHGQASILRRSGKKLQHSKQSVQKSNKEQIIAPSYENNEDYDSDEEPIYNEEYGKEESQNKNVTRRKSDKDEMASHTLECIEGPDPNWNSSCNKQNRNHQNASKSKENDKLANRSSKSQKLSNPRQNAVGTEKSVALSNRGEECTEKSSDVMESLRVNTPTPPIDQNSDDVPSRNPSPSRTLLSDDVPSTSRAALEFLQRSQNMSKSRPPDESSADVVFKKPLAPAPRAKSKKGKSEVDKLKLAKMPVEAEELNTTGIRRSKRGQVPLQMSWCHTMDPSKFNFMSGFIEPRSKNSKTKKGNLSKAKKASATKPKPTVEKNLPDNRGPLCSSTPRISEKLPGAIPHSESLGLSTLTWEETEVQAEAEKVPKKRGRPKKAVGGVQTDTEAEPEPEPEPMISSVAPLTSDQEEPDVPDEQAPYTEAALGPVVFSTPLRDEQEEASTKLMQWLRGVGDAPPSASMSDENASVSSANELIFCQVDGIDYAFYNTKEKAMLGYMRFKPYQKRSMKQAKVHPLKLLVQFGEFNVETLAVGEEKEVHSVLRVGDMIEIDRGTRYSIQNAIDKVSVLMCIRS
# T2: dCENP-A-GFP-LacI (Drosophila melanogaster), Q9V6Q2
# T2 chain: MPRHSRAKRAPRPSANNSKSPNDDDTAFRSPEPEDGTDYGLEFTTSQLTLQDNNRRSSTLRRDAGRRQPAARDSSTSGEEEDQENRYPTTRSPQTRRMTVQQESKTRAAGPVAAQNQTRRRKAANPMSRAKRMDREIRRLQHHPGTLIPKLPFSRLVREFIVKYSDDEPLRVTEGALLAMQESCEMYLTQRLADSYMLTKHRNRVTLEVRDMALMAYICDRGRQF
# Key:
# Details in all cases: remark: other sources report otherwise
# [1] = molecular target: T1, GFP-LacI-dCENP-C (Drosophila …); test: LacI/LacO tethering and recruitment assay (immunofluorescence); as a1, but with a third Drosophila centromere protein (CAL1-V5, dCENP-A-HA or -V5, or HA-dCENP-C) co-expressed, as named in the row
# [2] = molecular target: T1, GFP-LacI-dCENP-C (Drosophila …); test: LacI/LacO tethering and recruitment assay (immunofluorescence); bait fused to GFP-LacI tethered to chromosomal LacO arrays in human U2OS cells; HA- or V5-tagged prey transiently co-expressed; IF 48 h after transfection, prey intensity at the LacO spot or % of cells; no third Drosophila centromere protein co-expressed
# [3] = molecular target: (dCENP-A/dH4) dimer (Drosophila melanogaster), Q9V6Q2; test: SEC-MALS; recombinant proteins; Superdex 200 10/300 Increase GL, 50 mM HEPES pH 8.0, 150 or 300 mM NaCl, 1 mM TCEP, 22°C, 100 μl of 1-5 mg/ml
# [4] = molecular target: T2, dCENP-A-GFP-LacI (Drosophila …); test: LacI/LacO tethering and recruitment assay (immunofluorescence); as a1, but with a third Drosophila centromere protein (CAL1-V5, dCENP-A-HA or -V5, or HA-dCENP-C) co-expressed, as named in the row
# [5] = molecular target: T2, dCENP-A-GFP-LacI (Drosophila …); test: LacI/LacO tethering and recruitment assay (immunofluorescence); bait fused to GFP-LacI tethered to chromosomal LacO arrays in human U2OS cells; HA- or V5-tagged prey transiently co-expressed; IF 48 h after transfection, prey intensity at the LacO spot or % of cells; no third Drosophila centromere protein co-expressed
binder,measurement,setting,value
"dCENP-A-HA, Q9V6Q2 1-225 (natural protein) MPRHSRAKRAPRPSANNSKSPNDDDTAFRSPEPEDGTDYGLEFTTSQLTLQDNNRRSSTLRRDAGRRQPAARDSSTSGEEEDQENRYPTTRSPQTRRMTVQQESKTRAAGPVAAQNQTRRRKAANPMSRAKRMDREIRRLQHHPGTLIPKLPFSRLVREFIVKYSDDEPLRVTEGALLAMQESCEMYLTQRLADSYMLTKHRNRVTLEVRDMALMAYICDRGRQF",% of cells with localization at LacO (with CAL1-V5),[1],73 % cells
same,% of cells with localization at LacO (without CAL1),[2],43 % cells
"recombinant CAL1(1-160), Q9VEN2 1-160 (domain or fragment) MANAVVDEETLEAMVYERSKAWSSKMADFASLEDGMEIDVAEFDNLFHGEDEDPDLDDVAKEAVEDNVPDEAKLEMGHINATSVTELTLILCANEDNEAKAEIEEILNQTVPVVEEHKRKWREAGLDRILDTFDEKQIEHHVGRWMRRHNSVYLEASPPK",stoichiometry N ((dCENP-A/dH4) dimer per CAL1(1-160)),[3],1
"HA-dCENP-C, Q9VHP9 1-1411 (natural protein) MSKPQNNDTLELDDILSQPVKDKERFAAFMMRKLAENKPAQNDNLFGNFKLDFDLDFEVPLIKKSQAKPKSKLPEVQPLGELVSKNSAATEKVNEPPVDQAPNENVPPRRSPTLSPNNRRSMRRSGNVPGSDKLRRHAIRRRSRSCGRQLLPEFEETVNLTRSISSPVNFLPEISSTPCTEKQKEEVAKNTTRVETDKPAEKPMELSQEPEPENPLQTKVTSPARNPILAAEIEQICKERQSSFHKNVLQLDYSGRAPYSRPPTPSSPSVAGLRRTYTMEKGPAPGQLLLSPSHRYDTPSKMPVVKAKRFNQELMVPDTPERQSHDPAWQSEPQPEFVVPETQPQDLGELVQTLSRSAISPIVVINTSNSNRSVRRDAVAMKSVPTSPVTALSSPPIAPSPRRSAAASPQKSIAQLPRVEENMDAIMTDDESDEHPSTVPLNLAPSGGNTTRQRRLRSSNRARATIESQESSMRLLNLHKSVNAKKSKPRKTAIPLNKAPSAPINGEQFARELTRMSNYEILDLRKRNSLNEIYPLNGHRNHRSEKLILEEEIQRELLRRNLMDEAEGLPKQQSSDDSNEDYIPVPPKTQSLRTKSNDRSQGRGRPRSTRRDLPMTTELVNYLGLSQTLETRRKSSKDGKRCLYTKGSSDHEDNDSLSPVKLPRLSKSIQIVPPPPVSLRYSQSLQNLPCSGKFDFDNVVMAAPPDFHDSVNSDAIEIAPPPPEYVVNTRGRSTSGRKSNKNDLVLPPPGYEGGQEEEHDERPSQPRCTAKELQQSTQNGRRAMENELVPPPIEYVEEENRNNEQSRRSTKNGNLVDRNTHNAVEYCEPPEPPEYDDSDHGQASILRRSGKKLQHSKQSVQKSNKEQIIAPSYENNEDYDSDEEPIYNEEYGKEESQNKNVTRRKSDKDEMASHTLECIEGPDPNWNSSCNKQNRNHQNASKSKENDKLANRSSKSQKLSNPRQNAVGTEKSVALSNRGEECTEKSSDVMESLRVNTPTPPIDQNSDDVPSRNPSPSRTLLSDDVPSTSRAALEFLQRSQNMSKSRPPDESSADVVFKKPLAPAPRAKSKKGKSEVDKLKLAKMPVEAEELNTTGIRRSKRGQVPLQMSWCHTMDPSKFNFMSGFIEPRSKNSKTKKGNLSKAKKASATKPKPTVEKNLPDNRGPLCSSTPRISEKLPGAIPHSESLGLSTLTWEETEVQAEAEKVPKKRGRPKKAVGGVQTDTEAEPEPEPEPMISSVAPLTSDQEEPDVPDEQAPYTEAALGPVVFSTPLRDEQEEASTKLMQWLRGVGDAPPSASMSDENASVSSANELIFCQVDGIDYAFYNTKEKAMLGYMRFKPYQKRSMKQAKVHPLKLLVQFGEFNVETLAVGEEKEVHSVLRVGDMIEIDRGTRYSIQNAIDKVSVLMCIRS",% of cells with recruitment at LacO (with CAL1-V5),[4],55 % cells
same,% of cells with recruitment at LacO (without CAL1-V5),[5],17 % cells
